Reference: paper PMC3616739

Target: GST-LEDGF PWWP (UniProt O75475 1-100)
Assay: EMSA

Sequence of GST-LEDGF PWWP (O75475 1-100): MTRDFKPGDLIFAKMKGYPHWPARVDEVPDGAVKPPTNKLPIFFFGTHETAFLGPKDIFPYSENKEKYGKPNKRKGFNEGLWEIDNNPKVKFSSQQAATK

B1: non-specific DNA 40 bp (dsDNA)
DNA 1: CTGCAGAAGCTTGGTGCCGGGGCCGCTCAATTGGTCGTAG
DNA 2: CTACGACCAATTGAGCGGCCCCGGCACCAAGCTTCTGCAG
For B1, the Kd was ~1.5 µM.

B2: SMYD1 DNA 40 bp (dsDNA)
DNA 1: CAGGCTGGTCTTGAACTCCTGACCTCAGATGATCCATGTG
DNA 2: CACATGGATCATCTGAGGTCAGGAGTTCAAGACCAGCCTG
In the case of B2, the Kd is reported as ~1.5 µM.
